Test results published in IntAct's records for PubMed 24275654.

Legend:
tbb4a_human TUBB4A = tbb4a_human TUBB4A (UniProt P04350)
tbb5_human TUBB = tbb5_human TUBB (UniProt P07437)
tbb6_human TUBB6 = tbb6_human TUBB6 (UniProt Q9BUF5)
Chain of UniProt Q9BUF5 (Q9BUF5 whole entry): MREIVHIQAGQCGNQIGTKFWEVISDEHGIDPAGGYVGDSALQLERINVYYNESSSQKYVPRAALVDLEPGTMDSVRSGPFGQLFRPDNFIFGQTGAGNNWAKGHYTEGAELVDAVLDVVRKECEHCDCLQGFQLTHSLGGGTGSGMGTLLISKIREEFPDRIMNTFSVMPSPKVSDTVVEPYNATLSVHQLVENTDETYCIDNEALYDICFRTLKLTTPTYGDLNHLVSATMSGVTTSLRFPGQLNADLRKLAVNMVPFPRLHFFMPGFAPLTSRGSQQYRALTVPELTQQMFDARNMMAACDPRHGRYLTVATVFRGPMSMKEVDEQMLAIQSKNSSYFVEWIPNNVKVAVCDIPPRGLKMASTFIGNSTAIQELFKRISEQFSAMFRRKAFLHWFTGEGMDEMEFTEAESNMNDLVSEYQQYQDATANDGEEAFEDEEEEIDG

Chain of UniProt P04350 (P04350 whole entry): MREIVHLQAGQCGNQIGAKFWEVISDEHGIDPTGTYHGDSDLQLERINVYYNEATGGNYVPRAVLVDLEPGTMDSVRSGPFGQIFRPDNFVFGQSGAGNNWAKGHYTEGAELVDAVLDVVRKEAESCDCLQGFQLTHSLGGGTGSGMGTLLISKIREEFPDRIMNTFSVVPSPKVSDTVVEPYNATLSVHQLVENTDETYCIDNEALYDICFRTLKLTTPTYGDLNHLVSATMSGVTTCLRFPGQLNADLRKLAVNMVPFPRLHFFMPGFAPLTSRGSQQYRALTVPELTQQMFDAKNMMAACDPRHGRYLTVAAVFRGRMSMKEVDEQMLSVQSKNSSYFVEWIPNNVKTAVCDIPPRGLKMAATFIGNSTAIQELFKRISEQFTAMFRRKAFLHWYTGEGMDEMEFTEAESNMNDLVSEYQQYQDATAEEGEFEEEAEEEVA
Chain of UniProt P07437 (P07437 whole entry): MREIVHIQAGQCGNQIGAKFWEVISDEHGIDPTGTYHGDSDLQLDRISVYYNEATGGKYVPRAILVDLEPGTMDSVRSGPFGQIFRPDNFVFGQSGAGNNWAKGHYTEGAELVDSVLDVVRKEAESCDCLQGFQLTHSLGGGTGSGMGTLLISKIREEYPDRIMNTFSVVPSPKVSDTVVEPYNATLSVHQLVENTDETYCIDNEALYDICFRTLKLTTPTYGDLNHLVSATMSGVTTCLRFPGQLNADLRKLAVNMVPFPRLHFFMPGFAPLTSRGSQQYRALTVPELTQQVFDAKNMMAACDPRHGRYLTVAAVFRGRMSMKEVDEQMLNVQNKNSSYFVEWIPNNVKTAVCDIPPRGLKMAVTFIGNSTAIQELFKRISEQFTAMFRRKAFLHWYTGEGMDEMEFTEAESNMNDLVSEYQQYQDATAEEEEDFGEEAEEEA

| Substance | effect of a mutation on the interaction (tbb4a_human TUBB4A) | effect of a mutation on the interaction (tbb5_human TUBB) | effect of a mutation on the interaction (tbb6_human TUBB6) |
| --- | --- | --- | --- |
| Leucine-rich repeat serine/threonine-protein kinase 2 (Homo sapiens), Q5S007 T1491A | increasing interaction |  |  |
| Leucine-rich repeat serine/threonine-protein kinase 2 (Homo sapiens), Q5S007 R1441G | decreasing interaction | decreasing interaction |  |
| Leucine-rich repeat serine/threonine-protein kinase 2 (Homo sapiens), Q5S007 T1343A | increasing interaction |  |  |
| Leucine-rich repeat serine/threonine-protein kinase 2 (Homo sapiens), Q5S007 R1441H | decreasing interaction | decreasing interaction |  |
| Leucine-rich repeat serine/threonine-protein kinase 2 (Homo sapiens), Q5S007 R1441C | increasing interaction | increasing interaction |  |
| Leucine-rich repeat serine/threonine-protein kinase 2 (Homo sapiens), Q5S007 T1343D | decreasing interaction | decreasing interaction |  |
| Leucine-rich repeat serine/threonine-protein kinase 2 (Homo sapiens), Q5S007 T1491D | decreasing interaction |  |  |
| Leucine-rich repeat serine/threonine-protein kinase 2 (Homo sapiens), Q5S007 K1347A | disrupting interaction | disrupting interaction | disrupting interaction |
